Seven molecules from PMC11016934, “Mechanism of GTPase activation of a prokaryotic small Ras-like GTPase MglA by an asymmetrically interacting MglB dimer” (The Journal of Biological Chemistry, 2024) can be followed below.

Series [1] addresses MglA-link-MglB^ΔCt with C-terminal hexahistidine tag (mglA-link-mglB^ΔCt-H6) (Myxococcus xanthus) (UniProt Q1DB03).
Series [2] addresses MglA-link-MglB1 with C-terminal hexahistidine tag (mglA-link-mglB-H6) (Myxococcus xanthus) (UniProt Q1DB03).
Series [3] deals with MglB^ΔCt with C-terminal Strep-tag (MglB^ΔCt-Strep) (Myxococcus xanthus) (UniProt Q1DB03). As to the kind of experiment: SEC-MALS; Superdex 200 Increase 10/300 GL, room temperature (about 25 °C), 50 mM NaCl, 50 mM Tris pH 8.0, 0.4 ml/min; purified linked complexes loaded at approximately 5 mg/ml, 110 μl. On the technique in general: In gel filtration, larger molecules generally elute earlier.

Series [4] deals with the molecule itself. As to the kind of experiment: SEC; purified MglB^WT, MglB^ΔN and MglB^N37,R98A (Fig. S1B).
For series [5], the target named is T1, MglA (mutual gliding protein A), unlinked (Myxococcus xanthus) (UniProt Q1DB04).
T1 sequence: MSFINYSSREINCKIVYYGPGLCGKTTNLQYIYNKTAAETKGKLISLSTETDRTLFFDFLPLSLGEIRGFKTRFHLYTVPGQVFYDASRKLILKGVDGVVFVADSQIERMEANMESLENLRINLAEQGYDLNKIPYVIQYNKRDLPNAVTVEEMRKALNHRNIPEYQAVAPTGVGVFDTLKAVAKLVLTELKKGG

Series [6] addresses T2, MglB, unlinked wild type (Myxococcus xanthus), Q1DB03.
T2 chain: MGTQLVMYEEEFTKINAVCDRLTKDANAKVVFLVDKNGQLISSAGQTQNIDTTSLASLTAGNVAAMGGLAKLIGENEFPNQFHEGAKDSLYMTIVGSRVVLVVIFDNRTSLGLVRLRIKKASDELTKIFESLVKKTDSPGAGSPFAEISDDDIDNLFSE
As to the kind of experiment: SEC; purified MglB^WT, MglB^ΔN and MglB^N37,R98A (Fig. S1B). The note with it: remark: other sources report otherwise.

The target in series [7] is T3, MglB with C-terminal Strep-tag (MglB-Strep) (Myxococcus xanthus), Q1DB03.
T3 chain: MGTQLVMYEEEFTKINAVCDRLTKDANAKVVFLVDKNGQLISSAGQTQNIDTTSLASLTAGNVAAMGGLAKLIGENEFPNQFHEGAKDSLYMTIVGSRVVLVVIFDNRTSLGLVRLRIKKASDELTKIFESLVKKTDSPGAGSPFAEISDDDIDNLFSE
As to the kind of experiment: SEC-MALS; Superdex 200 Increase 10/300 GL, room temperature (about 25 °C), 50 mM NaCl, 50 mM Tris pH 8.0, 0.4 ml/min; purified linked complexes loaded at approximately 5 mg/ml, 110 μl. Particulars: remark: other sources report otherwise.

The stoichiometry N is the number of molecules, sites or subunits per partner or assembly. “MglB^ΔCt with C-terminal Strep-tag (MglB^ΔCt-Strep) (from UniProt Q1DB03 1-159) (domain or fragment)” gave a GTPase activity kobs of the linked complex {AB^ΔCt} (NADH-coupled assay) in series [1] of 0.1 min⁻¹. For the same molecule, the GTPase activity kobs of the linked complex {AB1B2^ΔCt} (NADH-coupled assay) in series [2] amounted to 0.17 min⁻¹. In addition, in series [3], the stoichiometry N turned out to be 2.

B1: MglB^ΔN (natural protein, Myxococcus xanthus)
chain: MYEEEFTKINAVCDRLTKDANAKVVFLVDKNGQLISSAGQTQNIDTTSLASLTAGNVAAMGGLAKLIGENEFPNQFHEGAKDSLYMTIVGSRVVLVVIFDNRTSLGLVRLRIKKASDELTKIFESLVKKTDSPGAGSPFAEISDDDIDNLFSE
notes: MglB, Myxococcus xanthus, with the N-terminal β-strand (residues 2 to 7) deleted; Dimer by SEC; also called MglB with residues 2 to 7 deleted; source: E. coli BL21AI, purified (as MglB, then Superdex 75 and MonoQ)
As to B1, the “stoichiometry N” value in series [4] was 2.

B2: MglB with C-terminal Strep-tag (MglB-Strep) (natural protein)
chain: MGTQLVMYEEEFTKINAVCDRLTKDANAKVVFLVDKNGQLISSAGQTQNIDTTSLASLTAGNVAAMGGLAKLIGENEFPNQFHEGAKDSLYMTIVGSRVVLVVIFDNRTSLGLVRLRIKKASDELTKIFESLVKKTDSPGAGSPFAEISDDDIDNLFSE
B2 returned a GTPase activity kobs of the linked complex {AB1^ΔCtB2} (NADH-coupled assay) in series [1] of 0.07 min⁻¹. The GTPase activity kobs of the linked complex {AB^WT} (NADH-coupled assay, GDP released per minute per μM enzyme) in series [2] came out at 0.2 min⁻¹.

B3: MglB^N37,R98A (natural protein, Myxococcus xanthus)
chain: MGTQLVMYEEEFTKINAVCDRLTKDANAKVVFLVDKAGQLISSAGQTQNIDTTSLASLTAGNVAAMGGLAKLIGENEFPNQFHEGAKDSLYMTIVGSAVVLVVIFDNRTSLGLVRLRIKKASDELTKIFESLVKKTDSPGAGSPFAEISDDDIDNLFSE
notes: MglB, Myxococcus xanthus, Asn-37 and Arg-98 mutated to alanines; also called double mutant of Asn-37 and Arg-98 to alanines; source: E. coli BL21AI, purified (as MglB, then Superdex 75 and MonoQ)
For the molecule B3, the binding result in series [4] was “binds”.

B4: MglB^ΔCt, unlinked (domain or fragment)
chain: MGTQLVMYEEEFTKINAVCDRLTKDANAKVVFLVDKNGQLISSAGQTQNIDTTSLASLTAGNVAAMGGLAKLIGENEFPNQFHEGAKDSLYMTIVGSRVVLVVIFDNRTSLGLVRLRIKKASDELTKIFESLVKKTDSPGAGSPFAEISDDDIDNLFSE
As for B4, the GTPase activity kobs of unlinked AB^ΔCt (NADH-coupled assay) in series [5] stood at 0.08 min⁻¹.

B5: MglB, unlinked wild type, Q1DB03 1-159 (natural protein)
chain: MGTQLVMYEEEFTKINAVCDRLTKDANAKVVFLVDKNGQLISSAGQTQNIDTTSLASLTAGNVAAMGGLAKLIGENEFPNQFHEGAKDSLYMTIVGSRVVLVVIFDNRTSLGLVRLRIKKASDELTKIFESLVKKTDSPGAGSPFAEISDDDIDNLFSE
As for B5, the stoichiometry N in series [6] was found to be 2.

B6: MglB with C-terminal Strep-tag (MglB-Strep), Q1DB03 1-159 (natural protein)
chain: MGTQLVMYEEEFTKINAVCDRLTKDANAKVVFLVDKNGQLISSAGQTQNIDTTSLASLTAGNVAAMGGLAKLIGENEFPNQFHEGAKDSLYMTIVGSRVVLVVIFDNRTSLGLVRLRIKKASDELTKIFESLVKKTDSPGAGSPFAEISDDDIDNLFSE
The molecule B6 yielded a stoichiometry N in series [7] of 2.
